In IntAct's records for PubMed 31515488:

Columns and labels:
BCL2L13 = BCL2L13 (UniProt Q9BXK5)
creb3_human CREB3 = target: T1, creb3_human CREB3 (UniProt O43889)
T1 sequence: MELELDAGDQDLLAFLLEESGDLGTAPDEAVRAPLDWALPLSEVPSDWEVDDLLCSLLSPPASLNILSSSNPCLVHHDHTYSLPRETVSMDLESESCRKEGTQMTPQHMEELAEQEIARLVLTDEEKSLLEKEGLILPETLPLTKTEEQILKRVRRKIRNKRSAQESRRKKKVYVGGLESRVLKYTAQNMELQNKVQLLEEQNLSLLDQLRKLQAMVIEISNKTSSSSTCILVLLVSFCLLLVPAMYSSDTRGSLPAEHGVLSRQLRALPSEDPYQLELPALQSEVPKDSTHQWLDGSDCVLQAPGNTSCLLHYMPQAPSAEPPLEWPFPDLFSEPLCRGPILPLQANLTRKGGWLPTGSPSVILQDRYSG

traf4_human TRAF4 = target: T2, traf4_human TRAF4 (UniProt Q9BUZ4)
T2 sequence: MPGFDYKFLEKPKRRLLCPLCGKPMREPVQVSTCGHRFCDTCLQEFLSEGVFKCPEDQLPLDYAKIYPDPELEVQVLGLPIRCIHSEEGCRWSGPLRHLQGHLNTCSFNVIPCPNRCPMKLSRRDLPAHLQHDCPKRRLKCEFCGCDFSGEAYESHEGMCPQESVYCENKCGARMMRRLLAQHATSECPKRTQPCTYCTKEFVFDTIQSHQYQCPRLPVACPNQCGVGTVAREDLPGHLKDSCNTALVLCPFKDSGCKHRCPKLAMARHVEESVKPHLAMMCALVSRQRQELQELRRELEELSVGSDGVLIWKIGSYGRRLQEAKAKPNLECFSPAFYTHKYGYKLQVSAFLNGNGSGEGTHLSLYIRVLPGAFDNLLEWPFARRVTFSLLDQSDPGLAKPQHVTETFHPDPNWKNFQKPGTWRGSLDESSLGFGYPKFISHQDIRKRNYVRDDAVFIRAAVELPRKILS

zsc32_human ZSCAN32 = zsc32_human ZSCAN32 (UniProt Q9NX65)
nasp_human NASP = nasp_human NASP (UniProt P49321)
Chain of nasp_human NASP (P49321 whole entry): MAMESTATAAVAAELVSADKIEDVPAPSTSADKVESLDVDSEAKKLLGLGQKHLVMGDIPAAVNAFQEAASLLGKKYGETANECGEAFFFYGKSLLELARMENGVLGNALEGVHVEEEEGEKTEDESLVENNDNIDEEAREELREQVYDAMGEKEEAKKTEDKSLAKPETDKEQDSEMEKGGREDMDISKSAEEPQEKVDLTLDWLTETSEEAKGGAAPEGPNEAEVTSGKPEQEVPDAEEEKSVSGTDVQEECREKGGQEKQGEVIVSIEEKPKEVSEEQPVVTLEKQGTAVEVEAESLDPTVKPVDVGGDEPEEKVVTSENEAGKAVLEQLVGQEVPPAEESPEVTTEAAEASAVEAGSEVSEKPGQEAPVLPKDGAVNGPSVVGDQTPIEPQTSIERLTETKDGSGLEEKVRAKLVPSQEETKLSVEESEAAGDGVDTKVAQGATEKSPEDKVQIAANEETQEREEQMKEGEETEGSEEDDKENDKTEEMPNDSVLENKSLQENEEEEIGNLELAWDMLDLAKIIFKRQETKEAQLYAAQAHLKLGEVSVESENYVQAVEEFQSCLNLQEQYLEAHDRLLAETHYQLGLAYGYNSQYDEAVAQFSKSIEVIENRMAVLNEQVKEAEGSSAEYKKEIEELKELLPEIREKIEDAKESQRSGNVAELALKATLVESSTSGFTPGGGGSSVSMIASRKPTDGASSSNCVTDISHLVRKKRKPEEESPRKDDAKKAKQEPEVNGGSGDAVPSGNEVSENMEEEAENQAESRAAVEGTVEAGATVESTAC

npal3_human NIPAL3 = npal3_human NIPAL3 (UniProt Q6P499)
Chain of npal3_human NIPAL3 (Q6P499 whole entry): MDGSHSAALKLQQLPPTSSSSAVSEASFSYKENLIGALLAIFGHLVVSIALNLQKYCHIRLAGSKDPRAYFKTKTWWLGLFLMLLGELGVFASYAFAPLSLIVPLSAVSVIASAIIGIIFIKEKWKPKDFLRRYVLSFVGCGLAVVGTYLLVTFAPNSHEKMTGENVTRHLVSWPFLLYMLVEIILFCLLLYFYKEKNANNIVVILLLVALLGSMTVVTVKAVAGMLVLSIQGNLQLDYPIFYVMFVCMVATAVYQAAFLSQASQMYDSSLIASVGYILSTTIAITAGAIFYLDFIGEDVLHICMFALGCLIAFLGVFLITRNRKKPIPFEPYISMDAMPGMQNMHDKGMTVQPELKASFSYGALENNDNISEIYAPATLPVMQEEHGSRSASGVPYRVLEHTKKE

lerl1_human LEPROTL1 = lerl1_human LEPROTL1 (UniProt O95214)
bnip3_human BNIP3 = bnip3_human BNIP3 (UniProt Q12983)
zbt24_human ZBTB24 = zbt24_human ZBTB24 (UniProt O43167)
Chain of zbt24_human ZBTB24 (O43167 whole entry): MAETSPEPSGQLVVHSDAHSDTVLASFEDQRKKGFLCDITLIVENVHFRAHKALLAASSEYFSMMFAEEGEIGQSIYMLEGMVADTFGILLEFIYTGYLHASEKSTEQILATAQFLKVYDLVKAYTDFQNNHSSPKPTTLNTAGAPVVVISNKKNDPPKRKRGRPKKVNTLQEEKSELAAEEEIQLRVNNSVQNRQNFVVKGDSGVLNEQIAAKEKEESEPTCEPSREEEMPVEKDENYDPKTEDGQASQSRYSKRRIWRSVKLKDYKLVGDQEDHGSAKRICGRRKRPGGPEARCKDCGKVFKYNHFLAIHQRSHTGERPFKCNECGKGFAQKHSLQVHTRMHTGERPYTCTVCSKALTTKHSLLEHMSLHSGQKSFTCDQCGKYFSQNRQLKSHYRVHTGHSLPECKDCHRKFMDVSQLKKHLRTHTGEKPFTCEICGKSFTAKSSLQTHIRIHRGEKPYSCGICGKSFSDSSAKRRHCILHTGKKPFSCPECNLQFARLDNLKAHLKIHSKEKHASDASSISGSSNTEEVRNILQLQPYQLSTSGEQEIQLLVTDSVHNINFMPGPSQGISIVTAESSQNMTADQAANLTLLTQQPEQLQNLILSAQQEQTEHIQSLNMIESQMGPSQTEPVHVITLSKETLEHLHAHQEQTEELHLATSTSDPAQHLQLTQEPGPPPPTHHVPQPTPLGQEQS

aakb2_human PRKAB2 = aakb2_human PRKAB2 (UniProt O43741)
dpyl3_human DPYSL3 = dpyl3_human DPYSL3 (UniProt Q14195)
dpyl5_human DPYSL5 = target: T3, dpyl5_human DPYSL5 (UniProt Q9BPU6)
T3 sequence: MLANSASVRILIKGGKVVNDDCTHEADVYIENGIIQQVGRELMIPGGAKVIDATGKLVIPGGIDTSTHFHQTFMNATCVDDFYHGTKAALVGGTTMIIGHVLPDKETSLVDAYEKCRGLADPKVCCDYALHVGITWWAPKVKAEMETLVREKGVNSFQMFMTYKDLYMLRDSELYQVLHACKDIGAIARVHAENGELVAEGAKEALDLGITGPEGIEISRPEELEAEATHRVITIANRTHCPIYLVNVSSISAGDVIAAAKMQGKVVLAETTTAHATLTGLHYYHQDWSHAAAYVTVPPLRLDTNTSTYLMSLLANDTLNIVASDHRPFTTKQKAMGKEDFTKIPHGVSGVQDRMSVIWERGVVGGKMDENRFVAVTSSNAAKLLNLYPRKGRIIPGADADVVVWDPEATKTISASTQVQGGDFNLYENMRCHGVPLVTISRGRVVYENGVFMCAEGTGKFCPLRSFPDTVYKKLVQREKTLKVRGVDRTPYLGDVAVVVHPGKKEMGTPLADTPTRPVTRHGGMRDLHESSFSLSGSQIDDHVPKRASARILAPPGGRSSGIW

dpyl2_human DPYSL2 [1] = target: dpyl2_human DPYSL2 (UniProt Q16555)
gors2_human GORASP2 = gors2_human GORASP2 (UniProt Q9H8Y8)
pls1_human PLSCR1 = pls1_human PLSCR1 (UniProt O15162)
ppla_human PLN = ppla_human PLN (UniProt P26678)
vatl_human ATP6V0C = vatl_human ATP6V0C (UniProt P27449)
Chain of vatl_human ATP6V0C (P27449 whole entry): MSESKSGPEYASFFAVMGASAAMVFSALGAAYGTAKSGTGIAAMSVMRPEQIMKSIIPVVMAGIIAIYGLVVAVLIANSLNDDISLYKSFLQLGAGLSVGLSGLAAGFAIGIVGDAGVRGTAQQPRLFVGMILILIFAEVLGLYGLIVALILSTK

emp3_human EMP3 = emp3_human EMP3 (UniProt P54852)
mal_human MAL = mal_human MAL (UniProt P21145)
trip6_human TRIP6 = trip6_human TRIP6 (UniProt Q15654)
efhc2_human EFHC2 = target: T4, efhc2_human EFHC2 (UniProt Q5JST6)
T4 sequence: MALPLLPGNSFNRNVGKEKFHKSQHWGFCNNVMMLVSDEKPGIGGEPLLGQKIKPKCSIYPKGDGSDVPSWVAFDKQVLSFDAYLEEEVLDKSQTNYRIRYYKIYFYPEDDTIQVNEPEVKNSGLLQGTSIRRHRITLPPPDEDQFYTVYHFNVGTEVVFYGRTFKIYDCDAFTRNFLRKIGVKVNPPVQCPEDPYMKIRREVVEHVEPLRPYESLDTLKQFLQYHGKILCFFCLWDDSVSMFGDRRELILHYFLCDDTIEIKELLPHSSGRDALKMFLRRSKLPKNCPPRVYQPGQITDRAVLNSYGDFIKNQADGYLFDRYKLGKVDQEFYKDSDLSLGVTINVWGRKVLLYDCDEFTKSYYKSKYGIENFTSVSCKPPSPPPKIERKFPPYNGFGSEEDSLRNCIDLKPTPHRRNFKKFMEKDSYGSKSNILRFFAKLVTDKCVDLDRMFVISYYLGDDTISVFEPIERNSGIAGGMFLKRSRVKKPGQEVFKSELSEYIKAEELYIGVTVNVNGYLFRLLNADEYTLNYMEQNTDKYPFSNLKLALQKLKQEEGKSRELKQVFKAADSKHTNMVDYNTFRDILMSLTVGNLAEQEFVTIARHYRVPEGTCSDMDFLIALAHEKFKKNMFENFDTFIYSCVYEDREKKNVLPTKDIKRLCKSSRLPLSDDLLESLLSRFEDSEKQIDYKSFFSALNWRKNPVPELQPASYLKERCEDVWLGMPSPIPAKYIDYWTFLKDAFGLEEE

cep70_human CEP70 = cep70_human CEP70 (UniProt Q8NHQ1)
Chain of cep70_human CEP70 (Q8NHQ1 whole entry): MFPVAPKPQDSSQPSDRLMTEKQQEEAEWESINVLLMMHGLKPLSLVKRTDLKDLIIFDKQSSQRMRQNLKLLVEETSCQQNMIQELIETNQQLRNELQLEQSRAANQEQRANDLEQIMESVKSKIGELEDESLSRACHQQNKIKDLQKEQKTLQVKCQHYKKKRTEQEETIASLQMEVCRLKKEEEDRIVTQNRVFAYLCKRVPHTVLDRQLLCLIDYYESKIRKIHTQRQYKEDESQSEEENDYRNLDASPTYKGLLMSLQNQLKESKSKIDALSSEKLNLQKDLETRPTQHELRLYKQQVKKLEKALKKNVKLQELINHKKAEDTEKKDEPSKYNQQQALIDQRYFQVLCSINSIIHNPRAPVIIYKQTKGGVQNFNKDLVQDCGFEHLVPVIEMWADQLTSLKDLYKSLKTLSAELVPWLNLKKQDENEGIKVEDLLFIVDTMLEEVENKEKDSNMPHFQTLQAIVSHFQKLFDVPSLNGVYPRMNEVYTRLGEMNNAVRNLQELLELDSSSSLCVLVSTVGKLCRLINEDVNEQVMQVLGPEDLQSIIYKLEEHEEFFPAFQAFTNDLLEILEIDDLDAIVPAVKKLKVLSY

ei2ba_human EIF2B1 = ei2ba_human EIF2B1 (UniProt Q14232)
Chain of ei2ba_human EIF2B1 (Q14232 whole entry): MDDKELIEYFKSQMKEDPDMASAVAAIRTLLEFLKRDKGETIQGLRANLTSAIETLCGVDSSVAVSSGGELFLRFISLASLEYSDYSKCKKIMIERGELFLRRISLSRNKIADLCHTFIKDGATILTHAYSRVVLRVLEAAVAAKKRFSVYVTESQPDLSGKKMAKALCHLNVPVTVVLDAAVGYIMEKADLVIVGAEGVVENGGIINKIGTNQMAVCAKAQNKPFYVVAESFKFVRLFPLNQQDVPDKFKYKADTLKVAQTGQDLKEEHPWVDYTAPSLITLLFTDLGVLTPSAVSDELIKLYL

acy3_human ACY3 = target: T5, acy3_human ACY3 (UniProt Q96HD9)
T5 sequence: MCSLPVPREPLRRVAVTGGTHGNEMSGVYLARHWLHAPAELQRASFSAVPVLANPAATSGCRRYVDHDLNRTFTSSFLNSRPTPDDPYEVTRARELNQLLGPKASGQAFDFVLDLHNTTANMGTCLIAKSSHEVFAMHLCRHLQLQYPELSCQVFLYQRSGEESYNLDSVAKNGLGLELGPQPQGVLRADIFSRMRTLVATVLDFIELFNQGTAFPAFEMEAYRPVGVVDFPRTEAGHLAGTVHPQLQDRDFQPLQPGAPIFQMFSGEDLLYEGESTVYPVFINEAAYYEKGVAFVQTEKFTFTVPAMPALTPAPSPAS

prdx3_human PRDX3 = target: T6, prdx3_human PRDX3 (UniProt P30048)
T6 sequence: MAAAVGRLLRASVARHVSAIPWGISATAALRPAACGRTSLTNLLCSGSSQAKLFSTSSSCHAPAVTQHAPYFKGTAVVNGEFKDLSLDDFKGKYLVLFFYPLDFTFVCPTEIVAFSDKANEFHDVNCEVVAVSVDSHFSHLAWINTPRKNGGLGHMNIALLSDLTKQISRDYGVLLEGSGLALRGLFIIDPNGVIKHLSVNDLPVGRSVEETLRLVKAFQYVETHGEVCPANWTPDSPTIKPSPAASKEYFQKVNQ

dmc1_human DMC1 = target: T7, dmc1_human DMC1 (UniProt Q14565)
T7 sequence: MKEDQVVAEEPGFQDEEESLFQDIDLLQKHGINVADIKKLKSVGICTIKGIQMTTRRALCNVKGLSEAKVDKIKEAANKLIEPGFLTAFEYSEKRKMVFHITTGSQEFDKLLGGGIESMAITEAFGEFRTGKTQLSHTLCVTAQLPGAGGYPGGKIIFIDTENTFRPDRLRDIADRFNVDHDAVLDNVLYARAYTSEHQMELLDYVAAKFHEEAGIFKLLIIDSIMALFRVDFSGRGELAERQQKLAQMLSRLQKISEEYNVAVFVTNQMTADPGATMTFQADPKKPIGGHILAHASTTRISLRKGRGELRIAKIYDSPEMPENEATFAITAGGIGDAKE

phs_human PCBD1 = phs_human PCBD1 (UniProt P61457)
Chain of phs_human PCBD1 (P61457 whole entry): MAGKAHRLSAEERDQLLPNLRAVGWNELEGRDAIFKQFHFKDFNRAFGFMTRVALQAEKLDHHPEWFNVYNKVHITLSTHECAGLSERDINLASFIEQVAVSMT

zmat1_human ZMAT1 = zmat1_human ZMAT1 (UniProt Q5H9K5)
cryaa_human CRYAA = cryaa_human CRYAA (UniProt P02489)
dpyl2_human DPYSL2 [2] = target: dpyl2_human DPYSL2 (UniProt Q16555); remark: listed apart in the source
pacn1_human PACSIN1 = pacn1_human PACSIN1 (UniProt Q9BY11)
elmo1_human ELMO1 = elmo1_human ELMO1 (UniProt Q92556)
Chain of elmo1_human ELMO1 (Q92556 whole entry): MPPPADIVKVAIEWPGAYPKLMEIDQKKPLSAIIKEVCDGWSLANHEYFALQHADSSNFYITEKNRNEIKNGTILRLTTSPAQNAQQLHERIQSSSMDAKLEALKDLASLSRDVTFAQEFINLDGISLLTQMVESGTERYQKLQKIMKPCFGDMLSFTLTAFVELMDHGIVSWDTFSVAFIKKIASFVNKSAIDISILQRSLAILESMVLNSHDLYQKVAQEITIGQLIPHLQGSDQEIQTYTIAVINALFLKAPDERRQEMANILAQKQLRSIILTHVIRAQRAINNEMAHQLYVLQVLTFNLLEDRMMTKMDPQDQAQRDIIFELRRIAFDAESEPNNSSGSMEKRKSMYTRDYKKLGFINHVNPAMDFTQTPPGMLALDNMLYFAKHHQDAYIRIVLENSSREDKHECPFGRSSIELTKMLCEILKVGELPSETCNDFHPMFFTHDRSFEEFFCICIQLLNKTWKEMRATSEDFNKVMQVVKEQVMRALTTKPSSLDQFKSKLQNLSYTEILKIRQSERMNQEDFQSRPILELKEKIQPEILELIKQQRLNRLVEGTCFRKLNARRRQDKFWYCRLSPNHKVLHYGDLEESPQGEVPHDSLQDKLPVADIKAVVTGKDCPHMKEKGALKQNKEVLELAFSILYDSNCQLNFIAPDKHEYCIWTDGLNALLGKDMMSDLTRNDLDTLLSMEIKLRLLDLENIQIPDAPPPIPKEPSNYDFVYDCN

lnx1_human LNX1 = lnx1_human LNX1 (UniProt Q8TBB1)
Chain of lnx1_human LNX1 (Q8TBB1 whole entry): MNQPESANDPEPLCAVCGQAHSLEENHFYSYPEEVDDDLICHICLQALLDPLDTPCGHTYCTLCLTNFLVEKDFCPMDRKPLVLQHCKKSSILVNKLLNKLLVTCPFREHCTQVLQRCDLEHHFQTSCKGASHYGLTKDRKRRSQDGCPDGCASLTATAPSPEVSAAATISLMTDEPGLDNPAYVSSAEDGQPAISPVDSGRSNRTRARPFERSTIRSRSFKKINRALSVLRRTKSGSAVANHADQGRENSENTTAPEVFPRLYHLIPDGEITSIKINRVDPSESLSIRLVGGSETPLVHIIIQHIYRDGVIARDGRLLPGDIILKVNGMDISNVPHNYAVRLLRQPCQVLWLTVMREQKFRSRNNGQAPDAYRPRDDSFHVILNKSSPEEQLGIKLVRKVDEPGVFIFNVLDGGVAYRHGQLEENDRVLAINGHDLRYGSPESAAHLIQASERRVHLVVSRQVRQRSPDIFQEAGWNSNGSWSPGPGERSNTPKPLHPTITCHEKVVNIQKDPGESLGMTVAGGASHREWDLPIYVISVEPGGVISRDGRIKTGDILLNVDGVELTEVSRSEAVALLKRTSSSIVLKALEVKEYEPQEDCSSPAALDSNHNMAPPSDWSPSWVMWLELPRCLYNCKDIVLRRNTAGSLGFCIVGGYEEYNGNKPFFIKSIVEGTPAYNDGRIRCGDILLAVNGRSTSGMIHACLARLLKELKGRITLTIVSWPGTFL

ck068_human C11orf68 = ck068_human C11orf68 (UniProt Q9H3H3)

Chain of Isoform 1 of Ectodysplasin-A (Homo sapiens), Q92838-1 P118L (Q92838 whole entry P118L, canonical isoform): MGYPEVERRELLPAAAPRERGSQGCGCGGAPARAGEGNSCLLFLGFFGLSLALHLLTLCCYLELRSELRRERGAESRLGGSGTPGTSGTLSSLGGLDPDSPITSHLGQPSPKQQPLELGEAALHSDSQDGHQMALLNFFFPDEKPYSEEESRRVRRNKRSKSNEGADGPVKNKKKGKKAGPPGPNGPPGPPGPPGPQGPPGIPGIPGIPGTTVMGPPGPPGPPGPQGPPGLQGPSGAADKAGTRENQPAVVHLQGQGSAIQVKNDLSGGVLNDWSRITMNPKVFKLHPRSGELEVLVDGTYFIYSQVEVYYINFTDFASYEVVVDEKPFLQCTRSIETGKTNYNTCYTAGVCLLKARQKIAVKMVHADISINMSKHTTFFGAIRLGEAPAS
Chain of Ectodysplasin-A (Homo sapiens), Q92838 R334H (Q92838 whole entry R334H): as the sequence (Q92838 whole entry P118L, canonical isoform) above, with L118P, R334H counted along it

Substance: Integral membrane protein 2B (Homo sapiens) (from UniProt Q9Y287) P31H
- effect of a mutation on the interaction (BCL2L13): with no effect
- effect of a mutation on the interaction (creb3_human CREB3): with no effect

Substance: Large ribosomal subunit protein bL28m (Homo sapiens) (from UniProt Q13084) D160E
- effect of a mutation on the interaction (traf4_human TRAF4): with no effect

Substance: Zinc finger protein with KRAB and SCAN domains 1 (Homo sapiens), P17029 R155K
- effect of a mutation on the interaction (zsc32_human ZSCAN32): with no effect

Substance: Histone H3.3C (Homo sapiens) (from UniProt Q6NXT2) R53C
- effect of a mutation on the interaction (nasp_human NASP): with no effect

Substance: Ectodysplasin-A (Homo sapiens), Q92838 R334H
- effect of a mutation on the interaction (npal3_human NIPAL3): with no effect
- effect of a mutation on the interaction (lerl1_human LEPROTL1): with no effect

Substance: Integral membrane protein 2B (Homo sapiens) (from UniProt Q9Y287) I237T
- effect of a mutation on the interaction (bnip3_human BNIP3): with no effect

Substance: Krueppel-like factor 15 (Homo sapiens), Q9UIH9 A199V
- effect of a mutation on the interaction (zbt24_human ZBTB24): with no effect
- effect of a mutation on the interaction (aakb2_human PRKAB2): with no effect

Substance: Dihydropyrimidinase-related protein 2 (Homo sapiens) (from UniProt Q16555-1) R481C
- effect of a mutation on the interaction (dpyl3_human DPYSL3): disrupting interaction strength
- effect of a mutation on the interaction (dpyl5_human DPYSL5): with no effect
- effect of a mutation on the interaction (dpyl2_human DPYSL2 [1]): disrupting interaction strength
- effect of a mutation on the interaction (gors2_human GORASP2): disrupting interaction strength

Substance: Regulator of G-protein signaling 3 (Homo sapiens), P49796-4 R528Q
- effect of a mutation on the interaction (pls1_human PLSCR1): with no effect

Substance: Isoform 1 of Ectodysplasin-A (Homo sapiens), Q92838-1 P118L
- effect of a mutation on the interaction (ppla_human PLN): with no effect
- effect of a mutation on the interaction (vatl_human ATP6V0C): with no effect
- effect of a mutation on the interaction (emp3_human EMP3): with no effect
- effect of a mutation on the interaction (mal_human MAL): with no effect

Substance: Rho-related GTP-binding protein RhoQ (Homo sapiens), P17081 E68K
- effect of a mutation on the interaction (trip6_human TRIP6): with no effect

Substance: Chloride intracellular channel protein 3 (Homo sapiens) (from UniProt O95833) M210L
- effect of a mutation on the interaction (efhc2_human EFHC2): with no effect

Substance: Zinc finger protein 302 (Homo sapiens), Q9NR11 R391H
- effect of a mutation on the interaction (cep70_human CEP70): with no effect

Substance: Golgi reassembly-stacking protein 2 (Homo sapiens) (from UniProt Q9H8Y8) S441C
- effect of a mutation on the interaction (ei2ba_human EIF2B1): with no effect
- effect of a mutation on the interaction (acy3_human ACY3): with no effect
- effect of a mutation on the interaction (prdx3_human PRDX3): disrupting interaction strength
- effect of a mutation on the interaction (dmc1_human DMC1): with no effect
- effect of a mutation on the interaction (phs_human PCBD1): with no effect
- effect of a mutation on the interaction (zmat1_human ZMAT1): with no effect
- effect of a mutation on the interaction (cryaa_human CRYAA): with no effect
- effect of a mutation on the interaction (dpyl2_human DPYSL2 [2]): with no effect

Substance: Protein kinase C and casein kinase substrate in neurons protein 3 (Homo sapiens) (from UniProt Q9UKS6) A61V
- effect of a mutation on the interaction (pacn1_human PACSIN1): disrupting interaction strength

Substance: Zinc finger protein 398 (Homo sapiens), Q8TD17 E87D
- effect of a mutation on the interaction (elmo1_human ELMO1): with no effect

Substance: Eukaryotic translation initiation factor 4H (Homo sapiens), Q15056 G164V
- effect of a mutation on the interaction (lnx1_human LNX1): with no effect
- effect of a mutation on the interaction (ck068_human C11orf68): with no effect
